Values joined by “and” are separate entries in the source; they are usually repeats but may differ in a detail not shown here. Equal entries are not always repeated. Where two headings read alike, the source gives them in different places.
Columns and labels:
Human OSM [1] = target: T1, Human OSM (human, UniProt P13725 26-221); experiment: BIAcore kinetics
T1 construct: Recombinant human OSM; also called hOSM; human Oncostatin M
T1 sequence: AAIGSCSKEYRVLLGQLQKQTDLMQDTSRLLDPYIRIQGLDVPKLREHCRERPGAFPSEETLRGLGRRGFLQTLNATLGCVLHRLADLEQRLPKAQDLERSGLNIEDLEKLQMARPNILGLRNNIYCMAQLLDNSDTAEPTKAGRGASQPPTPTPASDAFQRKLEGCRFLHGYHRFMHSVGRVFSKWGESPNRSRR

Cynomolgus OSM [2] = target: T2, Cynomolgus OSM (cynomolgus, UniProt A0A2K5VPC6 26-221); experiment: BIAcore kinetics
T2 construct: also called Cyno OSM; cynomolgus macaque OSM
T2 sequence: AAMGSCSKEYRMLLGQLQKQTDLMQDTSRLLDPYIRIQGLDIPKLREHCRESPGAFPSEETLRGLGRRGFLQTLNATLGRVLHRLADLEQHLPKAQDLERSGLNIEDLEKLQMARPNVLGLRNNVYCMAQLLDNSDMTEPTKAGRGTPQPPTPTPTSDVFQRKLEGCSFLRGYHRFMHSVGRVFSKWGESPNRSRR

Human OSM [3] = target: T1, Human OSM; experiment: BIAcore kinetics; remark: listed apart in the source
Cynomolgus OSM [4] = target: T2, Cynomolgus OSM; experiment: BIAcore kinetics; remark: listed apart in the source
Human OSM [5] = target: T1, Human OSM; experiment: BIAcore kinetics; remark: listed apart in the source
Cynomolgus OSM [6] = target: T2, Cynomolgus OSM; experiment: BIAcore kinetics; remark: listed apart in the source
Human OSM [7] = target: T1, Human OSM; experiment: cell-based or functional assay
Human OSM [8] = target: T1, Human OSM; experiment: cell-based or functional assay; remark: listed apart in the source
Cynomolgus OSM [9] = target: T2, Cynomolgus OSM; experiment: cell-based or functional assay
Human OSM [10] = target: T1, Human OSM; experiment: cell-based or functional assay; remark: listed apart in the source
Cynomolgus OSM [11] = target: T2, Cynomolgus OSM; experiment: cell-based or functional assay; remark: listed apart in the source
Human OSM [12] = target: T1, Human OSM; experiment: cell-based or functional assay; remark: listed apart in the source
Cynomolgus OSM [13] = target: T2, Cynomolgus OSM; experiment: cell-based or functional assay; remark: listed apart in the source
Marmoset OSM [14] = target: Marmoset OSM (marmoset); experiment: cell-based or functional assay
Human OSM [15] = target: T1, Human OSM; experiment: cell-based or functional assay; remark: listed apart in the source
Human OSM [16] = target: T1, Human OSM; experiment: human gp130 ELISA, inhibition of OSM binding to gp130
Cynomolgus OSM [17] = target: T2, Cynomolgus OSM; experiment: as above
Human OSM [18] = target: T1, Human OSM; experiment: as above; remark: listed apart in the source
Cynomolgus OSM [19] = target: T2, Cynomolgus OSM; experiment: as above; remark: listed apart in the source
[20] = target: T3, Endogenous human OSM (neutrophil-derived) (human, UniProt P13725 26-221, limits assumed); experiment: gp130 ELISA with endogenous neutrophil-derived human OSM
T3 construct: Native OSM generated from GM-CSF stimulation of healthy human neutrophils; also called native OSM; endogenous OSM
T3 sequence: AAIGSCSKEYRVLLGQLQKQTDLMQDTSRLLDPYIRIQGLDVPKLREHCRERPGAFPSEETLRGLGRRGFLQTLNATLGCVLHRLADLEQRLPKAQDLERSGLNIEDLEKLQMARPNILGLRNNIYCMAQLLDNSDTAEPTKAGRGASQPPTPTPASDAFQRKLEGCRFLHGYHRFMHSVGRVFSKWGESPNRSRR

[21] = target: T3, Endogenous human OSM …; experiment: as above; remark: listed apart in the source
Marmoset OSM [22] = target: Marmoset OSM (marmoset); experiment: cell-based or functional assay; remark: listed apart in the source
Human OSM [23] = target: T1, Human OSM; experiment: Kinexa solution phase affinity
Protocol: (§1) Kinexa (Sapidyne Instruments 3200) solution phase affinity was used to determine the overall affinity of anti-OSM antibody H0(huCDRH1)L1 and Humanised 15E10 (an unrelated OSM antibody) to human, cynomolgus macaque, rhesus macaque and marmoset OSM (Table 15). Humanised 15E10 was added for comparison purposes.
(§2) OSM beads were prepared either by adsorption (polymethylmethacrylate beads-PMMA) or amine coupling (NHS-activated sepharose beads). The range of OSM molecules studied necessitated the generation of beads coated with different concentrations of OSM. For the solution phase portion of the assay, a fixed concentration of antibody was incubated with a broad range of OSM concentrations and allowed to reach equilibrium by incubation at r.t. for at least 2 h before analysis proceeded. The OSM beads were then used to determine the amount of free antibody present in the solution phase samples, by means of the free antibody binding to the OSM bead matrix then detected using an appropriate secondary antibody (either anti-human or anti-mouse depending on the construct being tested) labelled with a fluorescent dye. The binding curves where fitted using the Kinexa Pro analysis software inherent to the machine. Multiple runs using varying starting concentrations of antibody were then compiled and analysed using the n-curve analysis software to give a more accurate determination of affinity.

Cynomolgus OSM [24] = target: T2, Cynomolgus OSM; experiment: Kinexa solution phase affinity
Protocol: as §1, §2

Marmoset OSM [25] = target: T4, Marmoset OSM (marmoset); experiment: Kinexa solution phase affinity
T4 construct: also called Marm OSM
Protocol: as §1, §2

Rhesus OSM = target: T5, Rhesus OSM (rhesus macaque, UniProt F7GF43 26-221); experiment: Kinexa solution phase affinity
T5 construct: also called rhesus macaque OSM
T5 sequence: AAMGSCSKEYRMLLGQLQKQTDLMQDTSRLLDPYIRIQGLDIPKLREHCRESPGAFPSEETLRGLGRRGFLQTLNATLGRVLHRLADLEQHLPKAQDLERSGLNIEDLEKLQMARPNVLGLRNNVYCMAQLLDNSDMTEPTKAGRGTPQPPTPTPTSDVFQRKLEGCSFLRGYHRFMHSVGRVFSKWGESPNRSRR
Protocol: as §1, §2

Human OSM [26] = target: T1, Human OSM; experiment: cell-based or functional assay; remark: listed apart in the source
Human OSM [27] = target: T1, Human OSM; experiment: cell-based or functional assay; remark: listed apart in the source
Human OSM [28] = target: T1, Human OSM; experiment: cell-based or functional assay; remark: listed apart in the source
Human OSM [29] = target: T1, Human OSM; experiment: cell-based or functional assay; remark: listed apart in the source
Human OSM [30] = target: T1, Human OSM; experiment: cell-based or functional assay; remark: listed apart in the source
Human OSM [31] = target: T1, Human OSM; experiment: cell-based or functional assay; remark: listed apart in the source
Human OSM [32] = target: T1, Human OSM; experiment: cell-based or functional assay; remark: listed apart in the source
Human OSM [33] = target: T1, Human OSM; experiment: cell-based or functional assay; remark: listed apart in the source
Human OSM [34] = target: T1, Human OSM; experiment: BIAcore kinetics, purified antibody
Cynomolgus OSM [35] = target: T2, Cynomolgus OSM; experiment: BIAcore kinetics, purified antibody
Human OSM [36] = target: T1, Human OSM; experiment: BIAcore kinetics, purified antibody; remark: listed apart in the source
Cynomolgus OSM [37] = target: T2, Cynomolgus OSM; experiment: BIAcore kinetics, purified antibody; remark: listed apart in the source

B1: anti human OSM mAb S168110G08(1)1A09 (10G8), murine (antibody, V domains shown)
VH: EMQLVESGEGLVEPGGSLKLSCAASGFTFSNYAMSWVRQTPEKSLEWVATISDGGSFTYYLDNVRGRFTISRDNAKNNLYLQMSHLKSDDTAMYYCARDVGHTTFWYFDVWGSGTAVTVSS
VL: DIVLTQSPVFLVVSLGQRATISCRASKSVSAAGYNFMHWYQQKPGQPPKVLIKYASNLESGVPARFSGSGSGTDFTLNIHPVEEEDAVTYYCLHSREFPFTFGGGTNLEIK
notes: Mouse hybridoma mAb; also called 10G8/A9; 10G8.A9
- fold increased affinity compared with 15E10 (Human OSM [1]): 8 fold
- fold increased affinity compared with 15E10 (Cynomolgus OSM [2]): 11 fold
- Kd (Human OSM [3]): 0.55 nM
- Kd (Cynomolgus OSM [4]): 0.308 nM
- Kd (Human OSM [5]): 0.549 nM
- koff (Human OSM [5]): 6.14e-05 s⁻¹
- kon (Human OSM [5]): 112000 M⁻¹ s⁻¹
- Kd (Cynomolgus OSM [6]): 0.308 nM
- koff (Cynomolgus OSM [6]): 2.99e-05 s⁻¹
- kon (Cynomolgus OSM [6]): 96900 M⁻¹ s⁻¹
- KB cell neutralisation assay, potency compared with 15E10 (Human OSM [7]): 15 fold
- KB cell neutralisation assay, mean IC50 (Human OSM [8]): 0.008 µg/ml and 53 pM
- KB cell neutralisation assay, mean IC50 (Cynomolgus OSM [9]): 0.006 µg/ml and 40 pM
- KB cell neutralisation assay, mean IC50 (Human OSM [10]): 0.054 µg/ml and 360 pM
- KB cell neutralisation assay, mean IC50 (Cynomolgus OSM [11]): 0.034 µg/ml and 227 pM
- KB cell neutralisation assay, mean IC50 (Human OSM [12]): 0.0026 µg/ml and 17 pM
- KB cell neutralisation assay, mean IC50 (Cynomolgus OSM [13]): 0.0017 µg/ml and 11 pM
- KB cell neutralisation assay, mean IC50 (Marmoset OSM [14]): 0.0017 µg/ml and 11 pM
- IC50 (read off the curve); IL-6 release from KB cells stimulated with human OSM, 25% human AB serum (Human OSM [15]): ~0.02 µg/mL
- IC50 (Human OSM [16]): 0.06 µg/mL and 0.4 nM
- IC50 (Cynomolgus OSM [17]): 0.01 µg/mL and 0.04 nM
- IC50 (Human OSM [18]): 0.044 µg/mL and 0.293 nM
- IC50 (Cynomolgus OSM [19]): 0.017 µg/mL and 0.113 nM
- IC50 [20]: 0.009 µg/mL and 0.06 nM
- IC50 [21]: 0.009 µg/mL and 0.06 nM

B2: 2B7, murine anti-OSM mAb (antibody, V domains shown)
VH: EVQLVESGGGLVKPGGSLKLSCAASGFTFSNYAMSWVRQTPEKRLEWVATISDGGGYTYYLDNGQGRFTISRDNAKNNLYLQMSHLKSEDTAMYYCARDVGLTTFWYFDVWGTGTTVTVSS
VL: DIVLTQSPVSLVISLGQRATISCRASKSVSPSSYNFMHWYQQRPGQPPKLLITYASNLESGVPARFSGSGSGTDFTLNIHPVEEEDAATYYCQHSREFPFTFGGGTRLEIK
notes: Mouse hybridoma mAb; also called 2B7/A6; 2B7.A6
- Kd (Human OSM [3]): 2.09 nM
- Kd (Cynomolgus OSM [4]): 9.31 nM
- KB cell neutralisation assay, mean IC50 (Human OSM [8]): 0.049 µg/ml and 327 pM
- KB cell neutralisation assay, mean IC50 (Cynomolgus OSM [9]): 0.344 µg/ml and 2.3 nM
- IC50 (read off the curve); IL-6 release from KB cells stimulated with marmoset OSM (Marmoset OSM [22]): ~0.05 µg/mL
- IC50 (Human OSM [16]): 0.08 µg/mL and 0.533 nM
- IC50 (Cynomolgus OSM [17]): 0.14 µg/mL and 0.993 nM

B3: 15E10h, non-competitive anti-OSM humanised antibody (antibody, human IgG1, kappa, V domains shown)
VH: QVQLVESGGGVVQPGRSLRLSCAASGFSLTNYGVHWVRQAPGKGLEWVAVIWRGGSTDYNAAFMSRFTISKDNSKNTLYLQMNSLRAEDTAVYYCAKSPNSNFYWYFDVWGRGTLVTVSS
VL: EIVLTQSPATLSLSPGERATLSCSGSSSVSYMYWYQQKPGQAPRLLIEDTSNLASGIPARFSGSGSGTDYTLTISNLEPEDFAVYYCQQWSSYPPTFGQGTKLEIKR
notes: also called Humanised 15E10; humanised 15E10
- KB cell neutralisation assay, mean IC50 (Human OSM [12]): 0.0391 µg/ml and 261 pM
- KB cell neutralisation assay, mean IC50 (Cynomolgus OSM [13]): 0.0054 µg/ml and 36 pM
- Kd (Human OSM [23]): 0.727 nM
- Kd (Cynomolgus OSM [24]): 0.102 nM
- Kd (Marmoset OSM [25]): 6.1 nM
- Kd (Rhesus OSM): 0.102 nM
- IC50 (read off the curve); IL-6 release from HFLS-RA cells stimulated with 0.3 ng/ml human OSM (Human OSM [26]): ~0.1 nM
- IC50 (read off the curve); IL-6 release from HFLS-RA cells stimulated with 3 ng/ml human OSM (Human OSM [27]): ~2 nM
- IC50 (read off the curve); MCP-1 release from HFLS-RA cells stimulated with 0.3 ng/ml human OSM (Human OSM [28]): ~0.2 nM
- IC50 (read off the curve); MCP-1 release from HFLS-RA cells stimulated with 3 ng/ml human OSM (Human OSM [29]): ~2 nM
- IC50 (read off the curve); MCP-1 release from normal human lung fibroblasts stimulated with 3 ng/ml OSM (Human OSM [30]): ~1 µg/mL
- IC50 (read off the curve); MCP-1 release from IPF human lung fibroblasts stimulated with 3 ng/ml OSM (Human OSM [31]): ~2 µg/mL
- IC50 (read off the curve); IL-6 release from normal human lung fibroblasts stimulated with 3 ng/ml OSM (Human OSM [32]): ~0.6 µg/mL
- IC50 (read off the curve); IL-6 release from IPF human lung fibroblasts stimulated with 3 ng/ml OSM (Human OSM [33]): ~1 µg/mL
- Kd (Human OSM [34]): 1.43 nM
- koff (Human OSM [34]): 0.000615 s⁻¹
- kon (Human OSM [34]): 429000 M⁻¹ s⁻¹
- Kd (Cynomolgus OSM [35]): 0.59 nM
- koff (Cynomolgus OSM [35]): 0.00031 s⁻¹
- kon (Cynomolgus OSM [35]): 526000 M⁻¹ s⁻¹
- Kd (Human OSM [36]): 0.882 nM
- koff (Human OSM [36]): 0.000649 s⁻¹
- kon (Human OSM [36]): 736000 M⁻¹ s⁻¹
- Kd (Cynomolgus OSM [37]): 0.64 nM
- koff (Cynomolgus OSM [37]): 0.000324 s⁻¹
- kon (Cynomolgus OSM [37]): 507000 M⁻¹ s⁻¹
- IC50 [21]: 0.076 µg/mL and 0.507 nM
